US20100120634A1 (Pfizer, published 2010)
Changes are numbered by the printed parent chain.

Columns and labels:
[1] = target: biotin labeled hRAGE-Fc (human) (UniProt Q15109); test: HTRF competition; scFv against Eu-cryptate XT-M4 for biotin-hRAGE-Fc
biotin labeled hRAGE-Fc = target: T1, biotin labeled hRAGE-Fc (human, UniProt Q15109 24-344, biotin-labeled (site not stated)); test: as above
T1 construct: used biotinylated in HTRF and coated in ELISA; also called Biotin-labeled RAGE-Fc; biotinylated-RAGE-Fc; not shown: Fc part not described
T1 sequence (Q15109 24-344): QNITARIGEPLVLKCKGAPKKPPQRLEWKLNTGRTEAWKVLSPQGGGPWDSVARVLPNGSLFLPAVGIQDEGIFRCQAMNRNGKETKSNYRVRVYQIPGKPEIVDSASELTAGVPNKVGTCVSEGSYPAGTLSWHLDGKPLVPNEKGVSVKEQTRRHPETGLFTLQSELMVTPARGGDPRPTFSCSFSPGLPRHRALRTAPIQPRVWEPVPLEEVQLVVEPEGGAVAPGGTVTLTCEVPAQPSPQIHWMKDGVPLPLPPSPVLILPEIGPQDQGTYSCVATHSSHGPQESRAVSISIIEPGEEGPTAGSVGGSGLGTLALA

Chain of biotin labeled hRAGE-Fc (human) (Q15109 24-344): as above

B1: 6A12 scFv (scFv, from a related filing, part only)
scFv: DIQMTQSPSSLSASVGDRVTITCRASQDVGIYVNWFQQKPGKAPRRLIYRATNLADGVPSRFSGSRSGTDFTLTISSLQPEDFATYYCLQYDAHPLTFGGGTKVEIKDGGGSGGGGSGGGGSSEVQLVESGGGLVQPGGSLRLSCAASGFTFNNYWMTWVRQAPGKGLEWVASIDNSGDNTYYPDSVKDRFTISRDNAKNSLYLQMNSLRAEDTAVYYCARGGDITTGFDYWGQGTLVTVSS
B1 was tested, and the IC50 [1] was 8.27 nM.

B2: 6C11 scFv (scFv, from a related filing, part only)
scFv: B1 scFv
B2 gave an IC50 [1] of 9.03 nM.

B3: 3B7 scFv (scFv, from a related filing, part only)
scFv: B1 scFv with Y91F, A93S
Work on B3 yielded an IC50 [1] of 7.35 nM.

B4: 3G8 scFv (scFv, from a related filing, part only)
scFv: B1 scFv
In the case of B4, the IC50 [1] is reported as 8.08 nM.

B5: 6C1 scFv (scFv)
chain: B1 scFv with Q90E, Y91L, A93E, T226K, T227V, F229L, Y231N
B5 gave an IC50 (biotin labeled hRAGE-Fc) of 4.44 nM.

B6: 3B2 scFv (scFv)
chain: B1 scFv with Q90E, Y91F, A93E, T226L, T227V, F229L
B6 gave an IC50 (biotin labeled hRAGE-Fc) of 0.91 nM.

B7: 3B4 scFv (scFv)
chain: B1 scFv with Q90E, Y91F, A93E, T226R, T227E, F229L, D230R
B7 was tested, and the IC50 (biotin labeled hRAGE-Fc) was 1.3 nM.

B8: 3C6 scFv (scFv)
chain: B1 scFv with Q90E, Y91F, A93E, T226V, T227V, F229L, Y231H
Work on B8 yielded an IC50 (biotin labeled hRAGE-Fc) of 1.25 nM.

B9: 3D5 scFv (scFv)
chain: B1 scFv with Q90E, Y91F, A93E, T226K, T227V, F229L, Y231L
For B9, the IC50 (biotin labeled hRAGE-Fc) was 2.99 nM.

B10: 6B6 scFv (scFv)
chain: B1 scFv with Q90E, Y91F, A93E, T226I, T227I, G228S, F229L, Y231W
B10 was tested, and the IC50 (biotin labeled hRAGE-Fc) was 0.64 nM.

B11: 6C3 scFv (scFv)
chain: B1 scFv with Q90E, Y91F, A93E, T227L, F229L, Y231V
B11 showed an IC50 (biotin labeled hRAGE-Fc) of 1.52 nM.

B12: 6D5 scFv (scFv)
chain: B1 scFv with Q90E, Y91F, A93E, T226K, T227V, G228S, F229L, Y231Q
Binder B12 has an IC50 (biotin labeled hRAGE-Fc) of 1.45 nM.

B13: 6E3 scFv (scFv)
chain: B1 scFv with Q90E, Y91F, A93E, T226R, T227V, G228S, F229L, Y231F
In the case of B13, the IC50 (biotin labeled hRAGE-Fc) is reported as 1.74 nM.
